Patent US9120862
Bridge positions count the residues as written; N and C are the ends. Ends that are not written are not given here.

Legend:
[1] = biological target: monoclonal antibody 3C10 (produced by hybridoma cell line ATCC deposit designation PTA-9638); assay: FCS competition: 2 nM Alexa488-PIVKA-II (13-27) premixed with 10 nM mAb 3C10, unlabelled PIVKA-II (13-27) added, overnight; D of the tracer (high D = tracer displaced)
[2] = biological target: monoclonal antibody 3C10 (produced by hybridoma cell line ATCC deposit designation PTA-9638); assay: FCS competition: 2 nM Alexa488-PIVKA-II (13-27) tracer + 10 nM mAb 3C10, competitor titrated; apparent diffusion coefficient of the tracer

Apparent Diffusion Coefficient (D) [1]: 174 um^2/sec
IC50 (read off the curve) [2]: 50 nM
Binder: LERECVEETCSYEEA (disulfide 5-10 (inferred)) [PIVKA-II (13-27) peptide, unlabelled (positive control competitor)]
